Data: patent US20240382605A1 (IONIS PHARMACEUTICALS, published 2024)
Like-named read-outs stand apart in the source and are kept apart here. Starred links: 1 amine or outer side, 2 acyl side, 3 side chain; linkers in the order of their positions; H or OH if unused. Positions of bridges follow the written chain, without caps; N, C: chain ends. Primed or numbered codes have the meaning given here. No end group written: not given here. *: point of attachment. TATB = O=C(C[*:1])N1CN(C(=O)C[*:2])CN(C(=O)C[*:3])C1; oligonucleotide 1590463 = not defined here; azidopropyl″ = [N-]=[N+]=NCCC*

Key:
[1] = molecular target: T1, hCD71-Nluc fusion protein (human, UniProt P02786 1-760); experiment: nanoBRET competition, tracer BCY17871-1598988 60 nM, HEK293 hCD71-Nluc membranes
T1 construct: whole, on cells; Used as crude membrane fractions of HEK293 cells stably expressing hCD71-Nluc; also called human transferrin receptor, CD71, fused to NanoLuc; not shown: NanoLuc (ProMega) luciferase joined through its N-terminal Val

[2] = molecular target: T1, hCD71-Nluc fusion protein; experiment: as above; remark: listed apart in the source
Experimental: (§1) The mixtures were incubated for 3 hours at room temperature to reach equilibrium. To initiate BRET, 12.4 μL of 100 μM of the Nluc substrate furimazine was added to each well, and the mixtures were incubated for 5-30 minutes. The assay plate was read on a Promega GlowMax Discover plate reader at wavelengths of 450 nm and 600 nm, and the ratio of emissions at wavelengths 450/600 were used to yield % BRET efficiency. Data was subjected to non-linear regression, then fitted to a single site binding hyperbolic function.
(§2) In order to evaluate modified oligonucleotides conjugated to CD71 bicycle ligands and RNAi compounds conjugated to CD71 bicycle ligands, the assay was modified as follows. […] Modified oligonucleotides were conjugated to the bicycle ligands through a SPAAC reaction These were then added at a range of concentrations in triplicate assays points, and the mixtures were incubated for 3 hours at room temperature. BRET was initiated with the addition of furimazine and the assay was completed as described above.

[3] = molecular target: T1, hCD71-Nluc fusion protein; experiment: as above; remark: listed apart in the source
Experimental: as §1, §2

[4] = molecular target: T1, hCD71-Nluc fusion protein; experiment: as above; remark: listed apart in the source
Experimental: as §1, §2

CD71 = molecular target: T2, CD71 (Homo sapiens (Human), UniProt P02786 89-760); experiment: SPR Biacore X100, conjugate duplexed to biotin-DNA on streptavidin chip, CD71 injected 6.25-100 nM, 1:1 fit
T2 construct: also called transferrin receptor; TfR1
Experimental: The binding affinity for each of the following modified oligonucleotides conjugated to CD71 bicycle ligands was tested on a Biacore X100 surface plasmon resonance (SPR) instrument. 200 units of modified oligonucleotides conjugated to CD71 bicycle ligand were immobilized on a streptavidin chip by injecting a 20 nM solution of 5′-Biotin-labeled DNA (5′-Biotin-TEG-DNA complement to modified oligonucleotide) duplexed with modified oligonucleotides conjugated to CD71 bicycle ligand in HBS—P (10 mM HEPES, pH 7.4, 150 mM NaCl, 0.0005% Surfactant P20) running buffer. […] Kinetic and equilibrium binding analysis was performed using Biacore X100 Evaluation Software, applying 1:1 binding fit.

[5] = molecular target: T1, hCD71-Nluc fusion protein; experiment: nanoBRET competition, tracer BCY17871-1598988 60 nM, HEK293 hCD71-Nluc membranes; remark: listed apart in the source
Experimental: as §1, §2

[6] = molecular target: T1, hCD71-Nluc fusion protein; experiment: as above; remark: listed apart in the source
Experimental: as §1, §2

[7] = molecular target: T1, hCD71-Nluc fusion protein; experiment: as above; remark: listed apart in the source
[8] = molecular target: T1, hCD71-Nluc fusion protein; experiment: as above; remark: listed apart in the source
[9] = molecular target: T1, hCD71-Nluc fusion protein; experiment: as above; remark: listed apart in the source

T2 sequence (P02786 89-760 limits assumed, form in doubt): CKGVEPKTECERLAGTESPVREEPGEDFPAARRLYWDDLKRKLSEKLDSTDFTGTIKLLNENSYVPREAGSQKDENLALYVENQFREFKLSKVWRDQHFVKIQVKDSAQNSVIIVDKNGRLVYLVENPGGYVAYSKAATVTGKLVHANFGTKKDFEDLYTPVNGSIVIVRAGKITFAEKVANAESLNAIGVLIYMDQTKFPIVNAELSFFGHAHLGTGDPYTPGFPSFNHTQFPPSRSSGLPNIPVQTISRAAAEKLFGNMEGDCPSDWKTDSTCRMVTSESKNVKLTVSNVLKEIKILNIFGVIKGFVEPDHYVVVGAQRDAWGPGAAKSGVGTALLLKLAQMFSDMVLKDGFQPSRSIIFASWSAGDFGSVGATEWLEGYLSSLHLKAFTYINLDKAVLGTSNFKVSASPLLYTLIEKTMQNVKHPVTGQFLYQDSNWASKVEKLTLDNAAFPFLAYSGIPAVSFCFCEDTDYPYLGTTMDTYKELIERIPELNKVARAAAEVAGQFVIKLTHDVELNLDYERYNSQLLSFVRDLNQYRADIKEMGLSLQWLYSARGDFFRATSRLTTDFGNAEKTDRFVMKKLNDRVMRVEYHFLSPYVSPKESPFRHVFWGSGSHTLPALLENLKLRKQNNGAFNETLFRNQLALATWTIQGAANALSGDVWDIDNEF
T1 sequence (P02786 other isoform, or with tags, fused parts or gaps): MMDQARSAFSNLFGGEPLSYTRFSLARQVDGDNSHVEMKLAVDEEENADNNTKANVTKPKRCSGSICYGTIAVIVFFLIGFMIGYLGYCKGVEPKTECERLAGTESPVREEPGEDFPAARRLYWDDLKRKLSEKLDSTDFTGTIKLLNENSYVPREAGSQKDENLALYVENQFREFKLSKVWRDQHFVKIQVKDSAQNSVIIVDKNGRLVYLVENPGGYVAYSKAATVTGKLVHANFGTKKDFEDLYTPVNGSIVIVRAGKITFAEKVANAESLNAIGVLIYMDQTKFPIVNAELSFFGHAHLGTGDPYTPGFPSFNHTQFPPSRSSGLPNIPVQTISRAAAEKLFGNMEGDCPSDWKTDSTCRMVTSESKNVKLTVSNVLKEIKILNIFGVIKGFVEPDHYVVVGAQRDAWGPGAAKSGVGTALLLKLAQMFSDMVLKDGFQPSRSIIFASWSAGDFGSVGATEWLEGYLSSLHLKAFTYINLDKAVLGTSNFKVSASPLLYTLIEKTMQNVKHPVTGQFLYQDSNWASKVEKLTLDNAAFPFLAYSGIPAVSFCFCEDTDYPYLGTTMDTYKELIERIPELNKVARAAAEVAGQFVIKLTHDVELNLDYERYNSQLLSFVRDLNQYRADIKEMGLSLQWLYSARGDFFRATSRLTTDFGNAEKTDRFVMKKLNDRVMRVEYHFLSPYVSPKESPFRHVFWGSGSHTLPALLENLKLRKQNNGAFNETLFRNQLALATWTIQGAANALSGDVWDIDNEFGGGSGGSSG

B1: 1590463-BCY17873 (peptide)
peptide: CSPDAHLGCISYCEPWX
modifications: not fully specified; as printed CSPDAHLGCISYCEPW[K(N3)]: N-terminal acetyl; C-terminal amide; three Cys bound to TATB scaffold; [K(N3)] 6-azido lysine at 17 joined via BCN linker to oligonucleotide 1590463
notes: also called Compound No. 1590463 conjugated to BCY17873
Ki [1]: 1 nM
Ki [2]: 7 nM
Ki [3]: 4 nM
Ki [4]: 6 nM
Kd (CD71): 12 nM
Ki [5]: 10 nM

B2: 1590463-BCY17868 (peptide)
peptide: CSPDAHLGCISYCX
modifications: not fully specified; as printed CSPDAHLGCISYC[K(N3)]: N-terminal acetyl; C-terminal amide; three Cys bound to TATB scaffold; [K(N3)] 6-azido lysine at 14 joined via BCN linker to oligonucleotide 1590463
notes: also called Compound No. 1590463 conjugated to BCY17868
Ki [4]: 20 nM
Kd (CD71): 0.9 nM

B3: 1614439-BCY17906 (peptide)
peptide: CSPDAHLGCISYCX
modifications: not fully specified; as printed CSPDAHLGCISYC[K(N3)(PYA-Maleimide)]: N-terminal acetyl; C-terminal amide; three Cys bound to TATB scaffold; modified lysine [K(N3)(PYA-Maleimide)] at 14 joined to oligonucleotide 1614439 (5' 6-mercaptohexanol linker)
notes: the coupling chemistry of this pair is not spelled out; also called Compound No. 1614439 conjugated to BCY17906
Ki [1]: 2 nM
Ki [5]: 23 nM

B4: 1602000-BCY17873 (peptide)
peptide: CSPDAHLGCISYCEPWX
modifications: as printed CSPDAHLGCISYCEPW[K(N3)]: N-terminal acetyl; C-terminal amide; three Cys bound to TATB scaffold; [K(N3)] 6-azido lysine at 17 joined to oligonucleotide 1602000 ([PEG1alkyne] linker)
notes: also called Compound No. 1602000 conjugated to BCY17873
Ki [1]: 1 nM
Ki [5]: 36 nM

B5: 1609732-BCY17873 (peptide)
peptide: CSPDAHLGCISYCEPWX
modifications: not fully specified; as printed CSPDAHLGCISYCEPW[K(N3)]: N-terminal acetyl; C-terminal amide; three Cys bound to TATB scaffold; [K(N3)] 6-azido lysine at 17 joined via BCN linker to oligonucleotide 1609732
notes: also called Compound No. 1609732 conjugated to BCY17873
Ki [1]: 1 nM
Ki [5]: 10 nM

B6: 1590463-BCY17869 (peptide)
peptide: {oligonucleotide 1590463-BCN linker-azidopropyl″}-CSPDAHLGCISYC-NH2
modifications: linker 1-9-13 via TATB; reading uncertain
notes: also called Compound No. 1590463 conjugated to BCY17869
Ki [4]: 55 nM
Kd (CD71): 14.5 nM

B7: 1590463-BCY19405 (peptide)
peptide: Ac-CSPDAHLGCISYCEPW
modifications: linker 1-9-13 via TATB; not fully specified (C-terminus); printed as CSPDAHLGCISYCEPW[PEG10][K(N3)]; also: azide of C-terminal K(N3) clicked via BCN linker to oligonucleotide 1590463
notes: also called Compound No. 1590463 conjugated to BCY19405
Ki [3]: 3 nM

B8: 1590463-BCY17870 (peptide)
peptide: NWNCSPDAHLGCISYCX
modifications: not fully specified; as printed NWNCSPDAHLGCISYC[K(N3)]: no N-terminal modification; C-terminal amide; three Cys bound to TATB scaffold; [K(N3)] 6-azido lysine at 17 joined via BCN linker to oligonucleotide 1590463
notes: also called Compound No. 1590463 conjugated to BCY17870
Ki [4]: 7 nM
Kd (CD71): 0.1 nM

B9: 1590463-BCY19406 (peptide)
peptide: Ac-CSPDAHLGCISYCEPW
modifications: linker 1-9-13 via TATB; not fully specified (C-terminus); printed as CSPDAHLGCISYCEPW[PEG24][K(N3)]; also: azide of C-terminal K(N3) clicked via BCN linker to oligonucleotide 1590463
notes: also called Compound No. 1590463 conjugated to BCY19406
Ki [3]: 2 nM

B10: 1590463-BCY19407 (peptide)
peptide: CSPDAHLGCISYCEPWGGSGGSX
modifications: not fully specified; as printed CSPDAHLGCISYCEPWGGSGGS[K(N3)]: N-terminal acetyl; C-terminal amidated; three Cys bound to molecular scaffold; [K(N3)] 6-azido lysine at 23 joined via BCN linker to oligonucleotide 1590463
notes: also called Compound No. 1590463 conjugated to BCY19407
Ki [3]: 2 nM

B11: 1598988-BCY17896 (peptide)
peptide: CPXDAYLGCXSYCX
modifications: as printed CP[HyP]DAYLGC[tBuGly]SYC[K(N3)]: N-terminal acetyl; C-terminal amide; three Cys bound to TATB scaffold; [HyP] 4-trans-hydroxy-L-proline at 3; [tBuGly] t-butyl glycine at 10; [K(N3)] 6-azido lysine at 14 joined via BCN linker to oligonucleotide 1598988
Ki [6]: 9.9 nM

B12: 1591118-BCY17896 (peptide)
peptide: CPXDAYLGCXSYCX
modifications: as printed CP[HyP]DAYLGC[tBuGly]SYC[K(N3)]: N-terminal acetyl; C-terminal amide; three Cys bound to TATB scaffold; [HyP] 4-trans-hydroxy-L-proline at 3; [tBuGly] t-butyl glycine at 10; [K(N3)] 6-azido lysine at 14 joined via BCN linker to oligonucleotide 1591118
notes: also called Compound No. 1591118 conjugated to BCY17896
Ki [6]: 3.1 nM

B13: 1598988-BCY17901 (peptide)
peptide: CPXDAYLGCXSYCEPWX
modifications: as printed CP[HyP]DAYLGC[tBuGly]SYCEPW[K(N3)]: N-terminal acetyl; C-terminal amide; three Cys bound to TATB scaffold; [HyP] 4-trans-hydroxy-L-proline at 3; [tBuGly] t-butyl glycine at 10; [K(N3)] 6-azido lysine at 17 joined via BCN linker to oligonucleotide 1598988
Ki [6]: 4.4 nM

B14: 1591118-BCY17901 (peptide)
peptide: CPXDAYLGCXSYCEPWX
modifications: as printed CP[HyP]DAYLGC[tBuGly]SYCEPW[K(N3)]: N-terminal acetyl; C-terminal amide; three Cys bound to TATB scaffold; [HyP] 4-trans-hydroxy-L-proline at 3; [tBuGly] t-butyl glycine at 10; [K(N3)] 6-azido lysine at 17 joined via BCN linker to oligonucleotide 1591118
notes: also called Compound No. 1591118 conjugated to BCY17901
Ki [6]: 1.4 nM

B15: 486178:1614438-BCY17873 (peptide)
peptide: CSPDAHLGCISYCEPWX
modifications: not fully specified; as printed CSPDAHLGCISYCEPW[K(N3)]: N-terminal acetyl; C-terminal amide; three Cys bound to TATB scaffold; [K(N3)] 6-azido lysine at 17 joined via BCN linker to oligonucleotide 1614438 of the duplex 486178:1614438
notes: nucleic acids; also called Compound No. 486178:1614438 conjugated to BCY17873
Ki [7]: 95 nM

B16: 1590463-BCY17871 (peptide)
peptide: NWNCSPDAHLGCISYCX
modifications: not fully specified; as printed NWNCSPDAHLGCISYC[K(N3)]: N-terminal acetyl; C-terminal amide; three Cys bound to TATB scaffold; [K(N3)] 6-azido lysine at 17 joined via BCN linker to oligonucleotide 1590463
notes: also called Compound No. 1590463 conjugated to BCY17871
Ki [4]: 6 nM
Kd (CD71): 2.4 nM

B17: 1453015:1550983-BCY17873 (peptide)
peptide: CSPDAHLGCISYCEPWX
modifications: not fully specified; as printed CSPDAHLGCISYCEPW[K(N3)]: N-terminal acetyl; C-terminal amide; three Cys bound to TATB scaffold; [K(N3)] 6-azido lysine at 17 joined via BCN linker to sense strand 1550983 of the RNAi duplex 1453015:1550983
notes: nucleic acids; also called RNAi compound 1453015:1550983 conjugated to BCY17873
Ki [8]: 9 nM
Ki [9]: 38 nM
